Data on 29 sequences can be found in the supplement of paper PMC9170038.

This data set relates to MS2 coat protein. Briefly: apparent KD of MS2 coat protein; designed switch direction (-1 OFF switch, 1 ON switch): 1; higher = weaker reporter binding. The method, boiled down:
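Apparent KD, taken as the median over clusters for each design, was obtained by curve-fitting normalised cluster fluorescence. Designed RNA switches had been transcribed on Illumina chips by stalled E. coli RNA polymerase and titrated with SNAP-549-labelled MS2 coat protein, doubling from 0.7 or 1.5 nM to 3 µM.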

Setting [1] is: Eterna round: R95, input ligand: FMN 200 uM.
Where [2] appears, read: Eterna round: R95, input ligand: microRNA oligo, concentration not stated.
The mark [3] stands for this setting: Eterna round: R95, input ligand: none.
Setting [4] is: input ligand: microRNA oligo, concentration not stated.

“UCUUGGUUUUUGCUCGUUUUUUGUGUUGAACAUGAGGAUCACCCAUGUAUUGUACGGUCCAAUUUAGUGGUAGUCCG [JMF 67] (puzzle: Sensor for hsa-mir-208a)”: the “apparent KD of MS2 coat protein” value by setting is: under setting [1], 38.4 nM; under setting [2], 25.3 nM; under setting [3], 38.7 nM.

As for “UCUUGGUUUUUGCUCGUUUUUUGUGUUGAACAUGAGGAUCACCCAUGUAUUGUACGGUCCAAUUUGAUAGUGGUCCG [JMF 28] (puzzle: Sensor for hsa-mir-208a)”, the “apparent KD of MS2 coat protein” value came out at 25.5 nM under setting [1], 14.9 nM under setting [2] and 25.7 nM under setting [3].

On to “UCUUGGUUUUUGCUCGUUUUUUGUGUUGAACAUGAGGAUCACCCAUGUAUUGUACGGUCCAAUUUGGUAAUGGUCCG [JMF 29] (puzzle: Sensor for hsa-mir-208a)”, for which the “apparent KD of MS2 coat protein” value by setting is: under setting [1], 25.2 nM; under setting [2], 15.6 nM; under setting [3], 26.8 nM.

“UCUUGGUUUUUGCUCGUUUUUUGUGUUGAACAUGAGGAUCACCCAUGUAUUGUACGGUCCAGUUUAGUAGUGGUCCG [JMF 32] (puzzle: Sensor for hsa-mir-208a)”: the “apparent KD of MS2 coat protein” value worked out at 26 nM under setting [1], 13.5 nM under setting [2] and 27 nM under setting [3].

Take “UCUUGGUUUUUGCUCGUUUUUUGUGUUGAACAUGAGGAUCACCCAUGUAUUGUACGGUCCGGUUUGGUAAUGGUCCG [JMF 10] (puzzle: Sensor for hsa-mir-208a)”: the “apparent KD of MS2 coat protein” value by setting is: under setting [1], 24.4 nM; under setting [2], 16.1 nM; under setting [3], 27.8 nM.

Consider “UGACAAGUGGUAGGAUAUCCAUGACAUGAGGAUCACCCAUGUUCUUUUGGUGUCCGUCACGGACGGGAGAAGGACCAACAUGAG [Same State NG2 S3] (Eterna round: R96, puzzle: Same State NG 2)”, for which the “apparent KD of MS2 coat protein” value is 10.1 nM (input ligand: FMN 200 uM), 9.45 nM under setting [4] and 12.9 nM (input ligand: none).

For “UGCAUACAUGAGGAUCACCCAUGUCAACUUAGUCGAGGAUAUGGGCAGCCCUGAGGCGAACCAGAAGGCGAAUUGU [JL-ss1-3.01 ViennaUCT mod] (puzzle: Same State 1)”, under setting [2], the “apparent KD of MS2 coat protein” value was 94.5 nM.

Turning to “UGCCUGAGUCGAGGAUAUUAUGGAUCCUCUAAUACAUGAGGAUCACCCAUGUAAUUAAUUAUACAUGAGAAGGCGACUCAGGCA [SSNG2/12-A2] (Eterna round: R96, puzzle: Same State NG 2)”, the “apparent KD of MS2 coat protein” value is, setting by setting: (input ligand: FMN 200 uM) 278 nM; under setting [4], 6.26 nM; (input ligand: none) 66.2 nM.

As for “UGCUAGUGGGUAGGAUAUUUAGGAUAUGCGGAAGACUAAGUCUGUAGGUCACCUAACGCAGAAGGAGAGAAGGACCCUUCAGCU [pwkr ssNG2 2FMN + F9.29] (Eterna round: R96, puzzle: Same State NG 2)”, the “apparent KD of MS2 coat protein” value came to 143 nM (input ligand: FMN 200 uM), 16.8 nM under setting [4] and 12.8 nM (input ligand: none).

Take “UGCUAGUGGGUAGGAUAUUUAGGAUAUGGGAAAGACUAAGUCUGUAGGUCACCUAACCCAGAAGGAGAGAAGGACCAUUCAGCU [pwkr ssNG2 2FMN + F9.27] (Eterna round: R96, puzzle: Same State NG 2)”: the “apparent KD of MS2 coat protein” value runs as follows: (input ligand: FMN 200 uM) 30.3 nM; under setting [4], 4.33 nM; (input ligand: none) 28.5 nM.

Regarding “UGCUUCGUGUAAGGAUAUGCAGCCGUUUCGGCUGCAGAAGGUACUAUAAUACAUGAGGAUCACCCAUGUCUCUCGCUUUGCGGG [salish99_SSng1_r04_304] (Eterna round: R96, puzzle: Same State NG 1)”, under setting [4], the “apparent KD of MS2 coat protein” value turned out to be 43.4 nM.

Take “UGGAAGAAUUAAGGAUAUCGAGUACAUAUGUUUAACAUGAGGAUCACCCAUGUGGGUUGCGGUAUCGAGAAGGUAAAUUACAAG [Mat - same State NG 2 - JL mod - D61] (Eterna round: R96, puzzle: Same State NG 2)”: the “apparent KD of MS2 coat protein” value was determined as 44.6 nM (input ligand: FMN 200 uM), 40.5 nM under setting [4] and 44 nM (input ligand: none).

As to “UGGCUCAGACGAGGAUAUAUGUGGUCACAUGAGGAUCACCCAUGUCUCGAGCUUCGGCUCGAGGCAUAGAAGGUGUCUGAGCCA [SSNG2/5-C2] (Eterna round: R96, puzzle: Same State NG 2)”, the “apparent KD of MS2 coat protein” value worked out at 227 nM (input ligand: FMN 200 uM), 16 nM under setting [4] and 33.9 nM (input ligand: none).

Regarding “UGGCUGGUGCUAGGAUAUGCAUGAGGCCUCCUCGUAGAAGGAGCACGACAUGAGGAUCACCCAUGUGGCCGUCCGUAGACGGCU [salish99_SSNG1_r04_013] (Eterna round: R96, puzzle: Same State NG 1)”, the “apparent KD of MS2 coat protein” value (input ligand: FMN 200 uM) came out at 62.5 nM, the “apparent KD of MS2 coat protein” value under setting [4] was 35.9 nM and the “apparent KD of MS2 coat protein” value (input ligand: none) is 61.2 nM.

With “UGGUAACAUGAGGAUCACCCAUGUCAAAUGAAUCGAGGAUAUGGGAAUUAAUAAUAUAAACUAGAAGGCGAAUUUG [Altered State 1-6 - Jieux - Same State 1] (puzzle: Same State 1)”, the “apparent KD of MS2 coat protein” value reads like this: under setting [1], 85.6 nM; under setting [2], 123 nM; under setting [3], 52.7 nM.

Consider “UGGUACAUGGGAGGAUAUCCUCAGGAGACAUGAGGAUCACCCAUGUAAUUAAAGCCGAAAGGCAUGGAGAAGGCCCAUGUACCU [JL SSNG1 3.79] (Eterna round: R96, puzzle: Same State NG 2)”, for which the “apparent KD of MS2 coat protein” value (input ligand: FMN 200 uM) came to 20.1 nM, the “apparent KD of MS2 coat protein” value under setting [4] was determined as 172 nM and the “apparent KD of MS2 coat protein” value (input ligand: none) was 131 nM.

For the sequence “UGUAAACAUGAGGAUCACCCAUGUAAUAUAAUGGGAGGAUAUCUGAAUUAAUUAAAUUAAGGAGAAGGCCUAAUGG [Mat - Same State 1 - Mod of Eli - D48] (puzzle: Same State 1)”, the “apparent KD of MS2 coat protein” value was 79.8 nM under setting [1], 995 nM under setting [2] and 563 nM under setting [3].

Turning to “UGUUAACAUGAGGAUCACCCAUGUCAAAUGAAUCGAGGAUAUGGAAAGUAAUAAGAUGAACUAGAAGGCGAAGUUG [Altered State 1-18 - Jieux - Same State 1] (puzzle: Same State 1)”, the “apparent KD of MS2 coat protein” value by setting is: under setting [1], 46.2 nM; under setting [2], 87.9 nM; under setting [3], 86.7 nM.

With “UGUUGUAUUACAGGAUAUCUAGCAUUUUUAUUUAGAGAAGGGUAUUCACAUGAGGAUCACCCAUGUAUAUACGAGGAAGUUGUG [JMF's solution 32] (Eterna round: R96, puzzle: Same State NG 1)”, the “apparent KD of MS2 coat protein” value runs as follows: (input ligand: FMN 200 uM) 54.9 nM; under setting [4], 42.1 nM; (input ligand: none) 51.9 nM.

As to “UGUUGUAUUACAGGAUAUCUAGUAUUUUCAUUUAGAGAAGGGUAUUCACAUGAGGAUCACCCAUGUAUAUACGAGGAAGUUGUG [JMF's solution 45] (Eterna round: R96, puzzle: Same State NG 1)”, the “apparent KD of MS2 coat protein” value under setting [4] was found to be 34.7 nM.

Regarding “UGUUGUAUUACAGGAUAUCUAUAAUUUUUAUUUAGAGAAGGGUAUUCACAUGAGGAUCACCCAUGUAUAUACGAGGAAGUUGUG [JMF's solution 10] (Eterna round: R96, puzzle: Same State NG 1)”, the “apparent KD of MS2 coat protein” value under setting [4] came out at 31.1 nM.

With “UGUUGUAUUACAGGAUAUCUAUGAUUUUAAUUUAGAGAAGGGUAUUCACAUGAGGAUCACCCAUGUAUAUACGAGGAAGUUGUG [JMF's solution 63] (Eterna round: R96, puzzle: Same State NG 1)”, the “apparent KD of MS2 coat protein” value under setting [4] is 40.2 nM.

Turning to “UGUUGUAUUACAGGAUAUCUAUGAUUUUUAUUAAGAGAAGGGUAUUCACAUGAGGAUCACCCAUGUAUAUACGAGGAAGUUGUG [JMF's solution 70] (Eterna round: R96, puzzle: Same State NG 1)”, the “apparent KD of MS2 coat protein” value under setting [4] is 25.6 nM.

On to “UGUUGUAUUACAGGAUAUCUAUUAUUUUUAAUUAGAGAAGGGUAUUCACAUGAGGAUCACCCAUGUAUAUACGAGGAAGUUGUG [JMF's solution 25] (Eterna round: R96, puzzle: Same State NG 1)”, for which the “apparent KD of MS2 coat protein” value under setting [4] is 27.5 nM.

For the sequence “UGUUUGUUGUGAGGAUAUACAUACACCUUACAUGAGGAUCACCCAUGUUGUUACCUUGAUAGUUAGUAGAAGGCACUUGGUUAU [JR_SSNG2_Sub046] (Eterna round: R96, puzzle: Same State NG 2)”, the “apparent KD of MS2 coat protein” value (input ligand: FMN 200 uM) is 243 nM, the “apparent KD of MS2 coat protein” value under setting [4] worked out at 140 nM and the “apparent KD of MS2 coat protein” value (input ligand: none) was determined as 261 nM.

Turning to “UGUUUGUUGUGAGGAUAUACAUACACCUUACAUGAGGAUCACCCAUGUUUUAAUUUUGAUAGUUAGUAGAAGGCACAUGAUUAU [JR_SSNG2_Sub044] (Eterna round: R96, puzzle: Same State NG 2)”, the “apparent KD of MS2 coat protein” value runs as follows: (input ligand: FMN 200 uM) 21.3 nM; under setting [4], 28.1 nM; (input ligand: none) 46.5 nM.

For “UUAACAUGAGGAUCACCCAUGUAUACGUAGUUUGCAUUUUGACAGGAUAUUGAAUAUCUAUAUAGCAAGAAGGGUCGUUAGUCU [JR_SSNG3_Sub007] (Eterna round: R96, puzzle: Same State NG 3)”, the “apparent KD of MS2 coat protein” value (input ligand: FMN 200 uM) came to 61 nM, the “apparent KD of MS2 coat protein” value under setting [4] came to 49.1 nM and the “apparent KD of MS2 coat protein” value (input ligand: none) stood at 56.7 nM.

For the sequence “UUAACAUGAGGAUCACCCAUGUAUGCGUUGCUUGCAUUUUGACAGGAUAUUGUUUAUCCAUAUAGCAAGAAGGGUCGUUAGUCU [JR_SSNG3_Sub010] (Eterna round: R96, puzzle: Same State NG 3)”, the “apparent KD of MS2 coat protein” value (input ligand: FMN 200 uM) stood at 80.9 nM, the “apparent KD of MS2 coat protein” value under setting [4] amounted to 63.1 nM and the “apparent KD of MS2 coat protein” value (input ligand: none) was 79.1 nM.

“UUAAGCCACGAGCAGGAUAUGUAUUAAAAUACAUGAGGAUCACCCAUGUGCAGGUGUAACACCUGACAGAAGGGCCAAUCGCGGC [Soondi - 1] (puzzle: Same State 2)”: the “apparent KD of MS2 coat protein” value by setting is: under setting [1], 256 nM; under setting [2], 366 nM; under setting [3], 461 nM.
